Assay results as given in US20040018529A1, “Functional cloning of genes encoding proteins/enzymes involved in proteolytic cleavage” (priority 1999, published 2004).
Peptide text beside a SMILES is read from it. * marks the point of attachment. Cbz = O=C(OCc1ccccc1)*; CH2F = FC*

B1: BACE2(D110A): catalytically inactive mutant of BACE2, expressed from plasmid (protein)
chain: APELAPAPFTLPLRVAAATNRVVAPTPGPGTPAERHADGLALALEPALASPAGAANFLAMVDNLQGDSGRGYYLEMLIGTPPQKLQILVATGSSNFAVAGTPHSYIDTYFDTERSSTYRSKGFDVTVKYTQGSWTGFVGEDLVTIPKGFNTSFLVNIATIFESENFFLPGIKWNGILGLAYATLAKPSSSLETFFDSLVTQANIPNVFSMQMCGAGLPVAGSGTNGGSLVLGGIEPSLYKGDIWYTPIKEEWYYQIEILKLEIGGQSLNLDCREYNADKAIVDSGTTLLRLPQKVFDAVVEAVARASLIPEFSDGFWTGSQLACWTNSETPWSYFPKISIYLRDENSSRSFRITILPQLYIQPMMGAGLNYECYRFGISPSTNALVIGATVMEGFYVIFDRAQKRVGFAASPCAEIAGAAVSEISGPFSTEDVASNCVPAQSLSEPILWIVSYALMSVCGAILLVLIVLLLLPFRCQRRPRDPEVVNDESSLVRHRWK
B2: BACE2: BACE2 expression plasmid; BACE2 competes in vivo with β-secretase for β-site APP cleavage (protein, UniProt Q9Y5Z0 63-518, looked up)
Beta-secretase 2: ALEPALASPAGAANFLAMVDNLQGDSGRGYYLEMLIGTPPQKLQILVDTGSSNFAVAGTPHSYIDTYFDTERSSTYRSKGFDVTVKYTQGSWTGFVGEDLVTIPKGFNTSFLVNIATIFESENFFLPGIKWNGILGLAYATLAKPSSSLETFFDSLVTQANIPNVFSMQMCGAGLPVAGSGTNGGSLVLGGIEPSLYKGDIWYTPIKEEWYYQIEILKLEIGGQSLNLDCREYNADKAIVDSGTTLLRLPQKVFDAVVEAVARASLIPEFSDGFWTGSQLACWTNSETPWSYFPKISIYLRDENSSRSFRITILPQLYIQPMMGAGLNYECYRFGISPSTNALVIGATVMEGFYVIFDRAQKRVGFAASPCAEIAGAAVSEISGPFSTEDVASNCVPAQSLSEPILWIVSYALMSVCGAILLVLIVLLLLPFRCQRRPRDPEVVNDESSLVRHRWK

Tests used:
293T cells = test: Apoptosis assay by visual inspection of transfected cells; assay type: cell-based, Human
Description: Apoptosis assays 293T cells were seeded onto 60 mm dishes at a density of 1.5×10^6 cells and, the next day, were transiently transfected with 2.5 μg plasmid DNA mixed with 15 μl lipofectamin reagent (Life Technologies, Grand Island, N.Y.). Twenty-four or 48 h after transfection, cell death was analyzed by one of the following methods. For the first assay, apoptosis was quantitated by visual inspection of cells. Cells with a shrunken, rounded, detached or blebbed appearance were scored as apoptotic. Usually 3 or more random fields were photographed and counted, and each field contained at least several hundred cells. In the case of co-transfection with green fluorescent protein (GFP)-expressing plasmid, cells were examined with an inverted fluorescent microscope, and only green cells with apoptotic features were counted. The second apoptotic assay used was the detection of nucleosomal ladder in apoptotic cells using ApoAlert LM-PCR ladder assay kit from Clontech. The procedure recommended by Clontech was followed.

[1] = target: modified caspase-3 containing the β-secretase cleavage site of APP of the Swedish version (expressed from plasmid pCBC1) (human); test: cell-based or functional assay
caspase-3 = test: Caspase-3 activity assay (ApoAlert CPP32/Caspase-3 Fluorescent Assay kit); assay type: cell-based, Human; details: 293T cells, co-transfection with pCBC1, compared with controls
Source text: The protease activity of the caspase is also directly monitored in the cell extracts prepared as above. The ApoAlert® Caspase-3 assay kit, available commercially from Clontech, allows convenient fluorometric or colorimetric detection and assay of caspase-3. For example, the fluorescent kit detects the emission shift of 7-amino-4-trifluoromethyl coumarin (AFC). The AFC-substrate conjugate, DEVD-AFC, usually emits blue light (λmax=400 nm). However, upon proteolytic cleavage of the substrate by Caspase-3, free AFC fluoresces yellow-green (λmax=505 nm). Thus monitoring of emission at 505 nm in the cell extract, in relation to the uninduced control extract, allows determination of caspase activity. The activity can also be quantitated accurately and reproducibly using a standard curve established with free AFC. As described above, if there is endogenous expression of enzyme X in these cells, the caspase activity is generated in cells transfected only with pCTC1 (+) but not with pCTC1 (−).
Caspase-3 activity assay Caspase-3 activity was determined following the instructions of ApoAlert CPP32/Caspase-3 Fluorescent Assay kit (Clontech).

β-secretase = test: β-NTF assay (ELISA of medium of transfected 293T cells); assay type: cell-based, Human; details: co-transfection with the APP expression plasmid, 48 h
Description: β-NTF assay 293T cells were seeded onto 60 mm dishes at a density of 1.5×10^6 cells and, the next day, were transiently transfected with 2.5 μg plasmid DNA mixed with 15 μl lipofectamin reagent (Life Technologies, Grand Island, N.Y.). In the case of transfection with pAPPsw plasmid, 0.5 μg pAPPsw was mixed with 2.0 μg carrier plasmid (unrelated plasmid). Twenty-four or 48 h after transfection, medium was collected and determined for […] by ELISA method as described [Liu, 2000]

modified caspase-3 = test: Western blot analysis of processing of the modified caspase-3; assay type: cell-based, Human; details: 293T cells, co-transfection with pCBC1, compared with the control
Source text: Western blot analysis Cells were collected in PBS and immediately lysed by the addition of an equal volume of 2×SDS loading buffer. After boiling and centrifugation, supernatants containing equal amount of proteins were loaded onto 14% SDS-PAGE gels. The proteins were resolved and transferred to a nylon membrane, and probed with antibodies against human caspase-3 (Santa Cruz Biotech, Santa Cruz, Calif.).

caspase-3 activity in transfected 293T cells (caspase-3 fluorescent assay), over mock-transfected cells, 24 and 48 h [1] | Molecule | cell death caused by transfection of pCBC1 plasmids (293T cells; 10 μM inhibitor added immediately after DNA transfection) | caspase-3 activity (caspase-3) | generation of β-NTF (β-secretase) | processed caspase-3 fragment (12 kDa) (modified caspase-3) | number of apoptotic cells / cell death caused by the modified caspase-3 (293T cells; co-transfection with pCBC1, compared with controls)
– | COC(=O)C[C@H](NC(=O)[C@H](C)NC(=O)[C@@H](NC(=O)OCc1ccccc1)C(C)C)C(=O)CF [Z-VAD.fmk, reference compound] (Cbz-Val-Ala-Asp(OMe)-CH2F) | significantly prevented cell death | – | – | – | –
10 fold | endogenous β-secretase activity of human embryonic kidney 293T cells (enzyme) | – | – | – | – | –
– | B1 | – | lower caspase-3 activity than the controls | significantly inhibited the generation of β-NTF | significantly reduced | –
– | B2 | – | lower caspase-3 activity than the controls | significantly inhibited the generation of β-NTF | significantly reduced | significantly reduced the number of apoptotic cells
